Test results from the DeepSol protein solubility set.

Test: soluble on expression in E. coli; label from the status in PepcDB or PDB records
With “MAHHHHHHMSVKNTFGTQAAKALCANLYTNWLSEDENVERIRDLLNRVLTLSATDQHSEMGAKNAASMTTAAAAAAGDKKGKAAGADALGNGARHSDPAVGLSTSSAAIHGNADRAQSPQPSPPQKSDKSAAALAADDRTPSPIQPSTSPTLIARFPGGVDELDYPHRAGSPVVTPVSPQPKPIVDPSAPLPHVGTGSLSPHGVHSLGSPRLDTTLNAAMVSGDLTIPLDASSTLSTTARESTTRFLHTSGSFAVTPPANLKQATLDEIPCFYSKRESRGLQIEVDVEEAQELSRLLEKNDPVKKTVWVFGDISSKVFKVPIWYKEALFKDIATRSGLDAATADTLTAAQIRTVYNDVYAPLSVSRRLYELICTHPKKEFITLSDLEGMGKYLVAAHPGLQFLQQPEFQEYYWHTVAVRIMYMLERQQCGRIYWRDFDRSDLPERMMELDAKDVNLVLDYFSYEHFYVLYCKFWELDTDRDLLVGFEDLCNYGQGSVVTGVIKRVVEGYGRPLSSGVPGKMDFEDFVYFCLSEEDKNSEPAVLYWFKVLDTDEDGVLSGYEMMQFFEENQQRFLEFSDSPEGDIAYEDTVCQMLDMVGFDRVKVRKYGVTLGDLRSCPTPANFFNMIFNASKFLLFEHRDPFGEHQMRLRVEKTEWDRFARAEYDRMAAEAQ” the “soluble on expression in E. coli” value was “not soluble”.
With “MAGDPMIRKPAVAGYFYPSNRNELLSLISSFHVQQSEVSCQPIGVVVPHAGIVYSGRTAMYSYNALRNSSIRDFIIIGPNHRPMTPYASIFPSGSWETPLGNAIINEELASELYKNSQYIVKDEESHSVEHSIEVQIPFLQYMFGNSFTFVPVILGDQEKVVANDIASALMRLSKPYILIASSDFTHYERSDIVERKDMDLISRIVDLDIDGFYDTIERENVTACGYGAIAILMIIAKKIGAKISLLNHSNSGDVTNDYDEVVGYSSIVACRQILEHHHHHH” the “soluble on expression in E. coli” value was “not soluble”.
With “MSLGGLCPRCRGRGWCGRDRCPFLDALNEVRARLSSRNVDGYTVTAHVSWRGYPRVIAAPGVGEHRTPDEGGVLADLPYEEALKTRALTFRRYRGKRDVRNPPDLSDPEIESSISVRPVESTLQVRRRLSGASRTTPFIGPLVEGELELDGTPKVPRDLERYHEDDVKAEEAVVGLYRRGYDESYIARALSLGLLGRDRRMVPTRWSVAAVDSMVSEHLAREVRDLPVSSEYRVLSGEVFGNEMWVILRPEPLSYELVEAYEPGAPWSDRTRIAVLRDSEVKDCKEPRETGGAYFAARLAALEWCSELGKQHGITVIRIVRKEYSAPLGAWVIREAVRRAEEVFSTDDPREVWEFLREKLDDPVGEAALKVIKRGRQRTLDTFLEGHHHHHH” the “soluble on expression in E. coli” value was “not soluble”.
In the case of “MVQPDDVLLGRYKIRFDIGPGRIGRIFAVLDQQDQSRSRVKVIKVLPMVAGEQFLDDPQTYNEFDFLNHLRGTIGVPNIIQHFQVGRERVMMMDKYLATLEQFRTRCDDRRISDLNIIKIAVRLVNVLEAIHQKGVIHRDLKTTNVMIRSRGQSEVNLVLIDYGLSTFNGTPPRALAPDAKSPEIMFRGHTHVSPALEEGLKADAVDDLQMLAIMLIWCSAYHPFGPIGQESSRKKAEFITNPVKYVKGRPFLRPLMTAIMAQPRGTRPNYQAILDAAAGPFPIDDIRDSLKTEISLLGVRFL”, the “soluble on expression in E. coli” value is reported as “not soluble”.
With “MAHHHHHHMPSEYHSSLADVSPRLSSRQRCSVRAGLSSTPRHAQGRRHLDPHHFTNLTDDAKRAEGRLGRAHVASSEQQKRADAYYATKQATVAQPPGAECNLYLKSYYYTPLSKQETPSPPPRPTTGFRADAQSTSFQLAEARLRKIKREHPQYEEEVTRALQQQHGDYSIVSTEQKISRRIAVEEYADGTNARMAQIEASTKYRGTPDLGSPAPAIKRSVPYALSEECPPRADTQLSCTSHVRLYPGCGRSSFPPETPVKPRARHLYDGPVPYDTTAASGEAYPSPPAVGERCNIYAKPTLVHVDERRHRDCVEDADSLAMKRARARSGARASQERPDFIFGPGPAPQPRPPSLRHHTEARWKAQERNAENRRTGRALYPQSHRSTSLW” the “soluble on expression in E. coli” value was “not soluble”.
With “MSLMKNILAIQSHVVYGHAGNSAAEFPMRRLGANVWPLNTVQFSNHTQYGKWTGCVMPPSHLTEIVQGIAAIDKLHTCDAVLSGYLGSAEQGEHILGIVRQVKAANPQAKYFCDPVMGHPEKGCIVAPGVAEFHVRHGLPASDIIAPNLVELEILCEHAVNNVEEAVLAARELIAQGPQIVLVKHLARAGYSRDRFEMLLVTADEAWHISRPLVDFGMRQPVGVGDVTSGLLLVKLLQGATLQEALEHVTAAVYEIMVTTKAMQEYELQVVAAQDRIAKPEHYFSATKLEGGSHHHHHH” the “soluble on expression in E. coli” value was “soluble”.
In the case of “MGSDKIHHHHHHMHQTILHAFSQHAASCYPNECCGLLIRQGNKAQYVKCENKATNKADEFVIDPQQYADIEELGAIIGICHSHPDASSKPSDRDRAMCEASGLPWHILSWPDGDLRTIVPTGERKSLLNRPFVHGVWDCYSCVRDWYSEVQQIHLPDFARQDGWWEGEQELYLDNFAKAGFVALPNINLADLQIGDVFLMQIQSQRVNHAAVYVGEGKILHHLYGRLSRYDIYGGYWQRNTRLIVRHCQ”, the “soluble on expression in E. coli” value is reported as “not soluble”.
For “MLPSKYEDNALQIKEKSTERTAPFFVLEVTARSAADILGIHPNSAALFYRKIRTVINHHLALAADEVFEGPVEPDESDFGGRRKGRRGRGAAGKVVVFGILKRNGRVYTVVVDNAKSETLLPVIKKKIMPDSIVYTDSLSSYDKLDVSGFIHYRINHSKECADRQNHINGIENFWNQAKRVLRKYNGIDRKSFPLFLKECEFRFNFGTPSQQLKILRDWCGILEHHHHHH”, the “soluble on expression in E. coli” value was “not soluble”.
With “VNKSELIEAIAQEADISKAAAQKALDATTNAVTTALKQGDTVTLVGFGTFYVGERAERQGRNPKTGEPLTIAAAKTPKFRAGKALKDAL” the “soluble on expression in E. coli” value was “soluble”.
For “MYKRYVAQIIFALTILISAPSWAETEETGPKLAYFTLEPDLTTNFYTKGKKLGYVQVRIDIMVMSQQDLAIVEHHQPLIRDAVIELLGKQTEDTIKSLSGREDLRKTLVKELNETLLPETGKTVIADLLFTKYLYQ”, the “soluble on expression in E. coli” value was “not soluble”.
For “MTEFELPPKYITAANDLRSDTFTTPTAEMMEAALEASIGDAVYGEDVDTVRLEQTVARMAGKEAGLFCVSGTLSNQIAIRTHLMQPPYSILCDYRAHVYTHEAAGLAILSQAMVVPVVPSNGDYLTLEDIKSHYVPDDGDIHGAPTRLISLENTLHGIVYPLEELVRIKAWCMENGLKLHCDGARIWNAAAQSGVPLKQYGEIFDSISICLSKSMGAPIGSVLVGNLKFVKKATHFRKQQGGGIRQSGMMARIALVNINNDWKSQLLYSHSLAHELAEYCEAKGIPLESPADTNFVFINLKAARMDPDVLVKKGLKYNVKLMGGRVSFHYQVTRDTLEKVKLAISEAFDYAKEHPFDCNGPTQIYRSESTEVDVDGNAIREIKTYKY”, the “soluble on expression in E. coli” value was “soluble”.
For “MGSDKIHHHHHHMKPITVLVSVDSNSVLMGARHFLNYFRDLVKEHNLEDTVDVLETGSMGIYPEGVIVSVLPDGVFYVVRNELDVRRIFEEHILKGRRVLDLEIPESQIKGTVEVEKVAEETRIVLKNVGEIDPTRIEEYIARDGYFALAKALQMEPGEIIEEIKRSGLRGRGGAGFPTGLKWEFTYKASADQKYVLCNADEGEPGTFKDRLIMEGDPHSLIEGMIIAGYAVGATKGYIYIRGEYHSSIEILKKAVEQAYEYGFLGENILGSGFNFDLKIRLGAGAYVAGEETALIESIEGKPARPRLKPPYPPTFGLFGKPTVVNNVETFVNVPRIIMNGAEWFKKFGTESSPGTKVFSLVGNVVRKGIVEVPMGVTVRDLIFKFGGGIEGGRKLKVVQTGGSAGTFIGPDKLDVPLDFDSYAKYGVSLGSGVILVADETHCVVDLALTVMRFFEHESCGKCTPCREGTRMIVNILERISRGEGKKEDLDTLREIARNAGETSFCGLGQSIPVPLLSIVDNFEEEFKAHIGADKCPVGVCEFKKKKEKKKIGVRKP”, the “soluble on expression in E. coli” value was “not soluble”.
In the case of “MPLVSMKEMLIDAKENGYAVGQYNINNLEFTQAILEASQEENAPVILGVSEGAARYMSGFYTIVKMVEGLMHDLNITIPVAIHLDHGSSFEKCKEAIDAGFTSVMIDASHSPFEENVATTKKVVEYAHEKGVSVEAELGTVGGQEDDVVADGIIYADPKECQELVEKTGIDALAPALGSVHGPYKGEPKLGFKEMEEIGLSTGLPLVLHGGTGIPTKDIQKAIPFGTAKINVNTENQIASAKAVRDVLNNDKEVYDPRKYLGPAREAIKETVKGKIKEFGTSNRAK”, the “soluble on expression in E. coli” value is reported as “not soluble”.
For “EQIDRWNQVSEYIERLNVLEDNGSNTLIIASGIAYPYVKEITEEEGLNANIFRLVTPVPIPEKSILDSMTRVKKVLVVEENDPVVELQLSQLMVKNGIMKELHGKDLVSPIGELTLEKVRGAIMGFFGKEYVRSYPDDVSLRTRPPALCPGCPHRSSFYDIKKGLSKVSMQKAFFSGDIGCYTLGALPPFNEQDSATNMGSSVGISNGVFRATGQIPVSIIGDSTFFHSGLQGVANAVYNGTPEIIIVLDNRSTAMTGQQPSPSTHISIENVARAMGIDFVDTFDPFDVKEGSDAVQKAAEYVKENKKPALIVAKRACALEVLEKVGDYTMKAEVDLEKCTGCSICYDFFTCPSILPLSNKKAFIDDSCIGCGACVEVCPFNAIK”, the “soluble on expression in E. coli” value was “not soluble”.
With “MKEACSSSSHVPVSDSKYILKSELLSLLKTYNCYHEGRSFQLRHREEEGTLIIEGLLNIAWGLRRPIRLQMQDDRERVHLPSATWVPERLSYLQKEASPQDSKVPTEEPGTQPANKAEVSGDSSGALEGEEEEVPQLMRTKSDASCIIQRRSKSRAPSEAQKIRRHRFSINGHFYNHKVKSPSALSWALKLRVQELFPSTEERAPNIQHSSHSSIR” the “soluble on expression in E. coli” value was “soluble”.
For “GSNRAIRTEKIICRDVARGYENVPIPCVNGVDGEPCPEDYKYISENCETSTMNIDRNITHLQHCTCVDDCSSSNCLCGQLSIRCWYDKDGRLLQEFNKIEPPLIFECNQACSCWRNCKNRVVQSGIKVRLQLYRTAKMGWGVRALQTIPQGTFICEYVGELISDAEADVREDDSYLFDLDNKDGEVYCIDARYYGNISRFINHLCDPNIIPVRVFMLHQDLRFPRIAFFSSRDIRTGEELGFDYGDRFWDIKSKYFTCQCGSEKCKHSAEAIALEQSRLARLD”, the “soluble on expression in E. coli” value was “soluble”.
For “MSLQQSPSTSRPQLGIGLIGTGFMGRAHALAFGSANAALELPARIHLAALADADSARAEQCAQAWGFDRSHADWQQLVEDPRVQIVAITTPNHLHFPMAMAAIAAGKAVYCEKPLAVSLAQADEMQRSAKAAGVVTQVGYNYQHNPMIGLAREMIEAGELGDIVSFQGEFSEDFMGSATSPWSWRCEAAHAGGALADLGSHLLAMARYLLGDIEAVCADANTVHSQRPASPGSNEMRAIAVDDQTHALLRFASGARGTFSSSWLKHGYKNHLSFEISGTQGTLTYDQERLNELRIYRPGAPGRDGFQRLLAGPAQPGYAAFCPAPGHQLGYNELKALEVQALILAVCGQGSRGPDFEEAWQIERLATAIRLAAHEQRWVALDDEGHHHHHH”, the “soluble on expression in E. coli” value was “soluble”.
With “MQTSNITNHERNDSSWMSTVKSTTEVSWNKLSFCDILLKIITFGIYSPHETLAEKHSEKKLMDSFSPSLSQDKMDGEFAHANIDGISIRLCLNKGICSVFYLDGDKIQSTQLSSKEYNNLLSSLPPKQFNLGKVHTITAPVSGNFKTHKPAPEVIETAINCCTSIIPNDDYFHVKDTDFNSVWHDIYRDIRASDSNSTKIYFNNIEIPLKLIADLINELGINEFIDSKKELQMLSYNQVNKIINSNFPQQDLCFQTEKLLFTSLFQDPAFISALTSAFWQSLHITSSSVEHIYAQIMSENIENRLNFMPEQRVINNCGHIIKINAVVPKNDTAISASGGRAYEVSSSILPSHITCNGVGINKIETSYLVHAGTLPSSEGLRNAIPPESRQVSFAIISPDV” the “soluble on expression in E. coli” value was “not soluble”.
In the case of “MGSDKIHHHHHHLKIITVSGPPSSGKTSVIIKTIEYLKKDQLEIGVVKFDSLSTYDDQMYKKLGVKVKVGLSGNLCPDHYYMTNIEDCVKWGVSEKLDMLISESAGLCNRCSPHIRDVLAICVIDNLSGINTPKKIGPMLRLADIVVITKGDIVSQAEREVFAFRAKQSSPRASIVFINGITGQGAYDLSLRLKEANDYESVIDKKLRFSMPAAVCSYCTGEIRIGERYQTGNIKKIKL”, the “soluble on expression in E. coli” value is reported as “not soluble”.
